Assay [1] deals with T1, Cynomolgus GUCY2C-ECD Cleaved (cynomolgus, UniProt P25092 24-430 (human entry)).
T1 construct: also called CyGUCY2C
T1 chain: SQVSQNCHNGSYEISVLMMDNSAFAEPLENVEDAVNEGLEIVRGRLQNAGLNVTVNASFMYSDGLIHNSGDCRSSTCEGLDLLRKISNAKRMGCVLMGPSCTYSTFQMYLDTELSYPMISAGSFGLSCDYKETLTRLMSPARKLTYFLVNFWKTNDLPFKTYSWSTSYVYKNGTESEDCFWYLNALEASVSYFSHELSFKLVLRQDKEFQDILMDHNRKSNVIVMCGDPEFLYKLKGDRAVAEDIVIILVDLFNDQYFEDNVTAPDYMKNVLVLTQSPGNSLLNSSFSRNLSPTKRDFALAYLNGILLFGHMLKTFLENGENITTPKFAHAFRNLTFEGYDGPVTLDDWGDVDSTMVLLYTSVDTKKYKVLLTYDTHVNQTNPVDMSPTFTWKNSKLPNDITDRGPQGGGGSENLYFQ
The assay is described as follows: direct DELFIA, 60 C.

Assay [2] concerns the target Human GUCY2c on tumor cells (T84, HT55) (human, UniProt P25092 24-1073). The assay is described as follows: cell-based or functional assay.
For a further assay, the target named is T2, Human CD3 epsilon-delta (human).
T2 construct: Single-chain epsilon-linker-delta with His6; also called huCD3
T2 chain: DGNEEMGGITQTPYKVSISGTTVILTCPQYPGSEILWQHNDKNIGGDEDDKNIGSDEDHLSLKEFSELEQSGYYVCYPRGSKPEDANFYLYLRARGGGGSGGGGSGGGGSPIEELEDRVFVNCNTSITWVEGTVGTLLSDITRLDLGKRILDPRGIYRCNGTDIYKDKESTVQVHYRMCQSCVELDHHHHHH
The assay is described as follows: SPR, recombinant human CD3.

Assay [3] addresses T1, Cynomolgus GUCY2C-ECD Cleaved. Briefly: SPR, GUCY2c directly immobilized, 37 C.
Description: Human GUCY2c, cyno GUCY2c and mouse GUCY2c were directly immobilized onto three different flow cells of a CM5 Sensor Chip (BR100530, GE Healthcare) surface using an amine coupling kit (BR100050, GE Healthcare) according to the manufacturer's protocol. […] Flow cell 1 was used as a reference flow cell. […] The dissociation was monitored for 400 seconds and the surface was regenerated with 10 mM Glycine pH 2.1. The running and sample buffer was 10 mM HEPES pH 7.4, 0.15 M NaCl, 3 mM EDTA, 0.05% P-20 (HBS-EP+). The data were double referenced. Binding affinities and rate constants were determined by fitting the resulting sensorgram data to a 1:1 Langmuir model in BIACORE™ T200 Evaluation software version 3.0 (GE Healthcare).
Assay [4] addresses T3, CID1877 (human-chicken GUCY2c chimera) (human/chicken).
T3 chain: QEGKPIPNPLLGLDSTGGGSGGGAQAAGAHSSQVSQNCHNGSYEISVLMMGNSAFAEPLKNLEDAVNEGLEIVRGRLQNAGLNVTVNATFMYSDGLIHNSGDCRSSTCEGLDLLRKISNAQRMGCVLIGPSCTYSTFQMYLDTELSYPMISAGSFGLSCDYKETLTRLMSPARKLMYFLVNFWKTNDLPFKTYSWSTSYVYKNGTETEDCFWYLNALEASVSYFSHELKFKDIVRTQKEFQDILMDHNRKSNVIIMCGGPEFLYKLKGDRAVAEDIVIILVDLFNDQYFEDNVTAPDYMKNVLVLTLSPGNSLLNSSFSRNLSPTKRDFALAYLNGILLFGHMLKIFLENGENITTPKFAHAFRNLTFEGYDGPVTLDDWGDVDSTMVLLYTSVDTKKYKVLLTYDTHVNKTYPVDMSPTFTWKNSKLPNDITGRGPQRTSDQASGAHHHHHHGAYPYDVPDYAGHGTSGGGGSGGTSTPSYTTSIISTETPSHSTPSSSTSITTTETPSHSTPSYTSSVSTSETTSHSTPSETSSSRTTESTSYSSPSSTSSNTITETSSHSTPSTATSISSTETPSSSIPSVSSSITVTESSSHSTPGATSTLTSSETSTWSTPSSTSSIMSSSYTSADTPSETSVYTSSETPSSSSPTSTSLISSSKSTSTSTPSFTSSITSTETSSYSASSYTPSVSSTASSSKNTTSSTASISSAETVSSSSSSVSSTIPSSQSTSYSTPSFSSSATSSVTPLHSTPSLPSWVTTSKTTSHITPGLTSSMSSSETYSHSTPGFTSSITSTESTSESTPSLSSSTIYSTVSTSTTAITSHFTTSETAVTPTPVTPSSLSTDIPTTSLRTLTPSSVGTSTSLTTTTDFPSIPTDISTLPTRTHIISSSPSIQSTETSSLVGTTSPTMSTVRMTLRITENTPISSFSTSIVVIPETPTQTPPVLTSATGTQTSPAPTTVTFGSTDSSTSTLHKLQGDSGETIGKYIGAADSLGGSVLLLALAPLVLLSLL
The assay is described as follows: flow cytometry on cells displaying the construct. (A flow cytometer gives signals particle by particle.)
Excerpt: (§1) Cells were then washed three times with PBS+0.5% BSA buffer. […] Cells were washed three times with PBS+0.5% BSA buffer and then analyzed on a flow cytometer.
(§2) MFI (median fluorescence intensity) of anti-GUCY2c antibody binding to the cells was normalized to expression on cell surface measured by MFI of anti-tag antibodies. All the cells expressed V5 and HA on the cell surface for expression normalization.

Assay [5] has as its target CID1943 (human GUCY2c point mutant) (human). The assay is described as follows: flow cytometry on cells displaying the construct.
Excerpt: as §1, §2
The target of assay [6] is CID1948 (human GUCY2c point mutant) (human). Briefly: flow cytometry on cells displaying the construct.
Excerpt: as §1, §2
Assay [7] has as its target CID1950 (human GUCY2c point mutant) (human). The assay is described as follows: flow cytometry on cells displaying the construct.
Excerpt: as §1, §2

Chain of Human GUCY2c on tumor cells (T84, HT55) (P25092 24-1073 limits assumed): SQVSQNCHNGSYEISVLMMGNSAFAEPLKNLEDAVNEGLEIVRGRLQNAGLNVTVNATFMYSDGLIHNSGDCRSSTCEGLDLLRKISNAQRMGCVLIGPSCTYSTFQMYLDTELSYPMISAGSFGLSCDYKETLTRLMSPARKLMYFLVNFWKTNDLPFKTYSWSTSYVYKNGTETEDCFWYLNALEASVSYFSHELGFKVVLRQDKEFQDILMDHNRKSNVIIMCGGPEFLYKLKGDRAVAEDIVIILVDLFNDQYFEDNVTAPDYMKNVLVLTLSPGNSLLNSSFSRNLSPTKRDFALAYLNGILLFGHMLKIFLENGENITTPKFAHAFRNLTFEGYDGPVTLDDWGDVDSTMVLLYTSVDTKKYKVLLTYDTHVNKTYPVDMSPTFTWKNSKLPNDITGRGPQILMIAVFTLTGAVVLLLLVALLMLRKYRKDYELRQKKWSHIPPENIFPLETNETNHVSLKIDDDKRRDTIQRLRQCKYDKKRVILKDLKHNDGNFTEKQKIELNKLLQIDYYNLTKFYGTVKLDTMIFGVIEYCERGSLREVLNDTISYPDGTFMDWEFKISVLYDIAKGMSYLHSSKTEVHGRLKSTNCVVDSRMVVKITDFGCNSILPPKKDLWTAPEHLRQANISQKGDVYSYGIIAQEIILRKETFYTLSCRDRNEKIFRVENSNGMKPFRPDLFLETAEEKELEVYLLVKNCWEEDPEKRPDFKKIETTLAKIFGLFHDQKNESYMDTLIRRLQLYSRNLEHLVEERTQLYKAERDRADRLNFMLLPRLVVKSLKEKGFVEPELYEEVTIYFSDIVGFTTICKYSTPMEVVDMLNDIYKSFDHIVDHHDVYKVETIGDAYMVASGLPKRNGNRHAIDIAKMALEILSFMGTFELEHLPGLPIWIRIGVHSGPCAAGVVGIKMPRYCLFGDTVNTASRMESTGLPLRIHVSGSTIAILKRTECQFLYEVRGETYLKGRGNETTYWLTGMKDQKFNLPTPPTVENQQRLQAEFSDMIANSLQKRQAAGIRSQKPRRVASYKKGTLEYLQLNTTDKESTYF

B1: GUCY2C-1608 (bispecific antibody)
chain 1: DIQLTQSPSSLSASVGDRVTITCRASESVDYYGSSLLQWYQQKPGKAPKLLIYAASKLASGVPSRFSGSGSGTDFTLTISSLQPEDFATYYCQQTRKAYTFGQGTKLEIKGGGSGGGGEVQLVESGGGLVQPGGSLRLSCAASGFTFSDYYMTWVRQAPGKGLEWVAFIRNQARGYTSDHNPSVKGRFTISRDNAKNSLYLQMNSLRAEDTAVYYCARDRPSYYVLDYWGQGTTVTVSSGCPPCPAPEAAGAPSVFLFPPKPKDTLMISRTPEVTCVVVDVSHEDPEVKFNWYVDGVEVHNAKTKPREEQYNSTYRVVSVLTVLHQDWLNGKEYKCKVSNKALPAPIEKTISKAKGQPREPQVCTLPPSREEMTKNQVSLWCLVKGFYPSDIAVEWESNGQPENNYKTTPPVLDSDGSFFLYSKLTVDKSRWQQGNVFSCSVMHEALHNHYTQKSLSLSPG
chain 2: DIQMTQSPSSLSASVGDRVTITCTSSQSLFNVRSQKNYLAWYQQKPGKAPKLLIYWASTRESGVPSRFSGSGSGTDFTLTISSLQPEDFATYYCKQSYDLFTFGGGTKVEIKGGGGSGGGGEVQLVESGGGLVQPGGSLRLSCAASGFTFSSYWMHWVRQAPGKGLEWIGEIKPSNELTNVHEKFKDRFTISVDKAKNSAYLQMNSLRAEDTAVYYCTRTITTTEGYWFFDVWGQGTLVTVSSGCPPCPAPEAAGAPSVFLFPPKPKDTLMISRTPEVTCVVVDVSHEDPEVKFNWYVDGVEVHNAKTKPREEQYNSTYRVVSVLTVLHQDWLNGKEYKCKVSNKALPAPIEKTISKAKGQPREPQVYTLPPCREEMTKNQVSLSCAVKGFYPSDIAVEWESNGQPENNYKTTPPVLDSDGSFFLVSKLTVDKSRWQQGNVFSCSVMHEALHNHYTQKSLSLSPG
notes: also called GUCY2c CD3 bispecific
In turn, B1 registered an EC50 in assay [1] of 49.9 nM. Besides, the “T84 tumor cell EC50 (T cell cytotoxicity, E:T 5:1)” value in assay [2] was 0.19 nM. In addition, the Kd with Human CD3 epsilon-delta worked out at 128 nM; in assay [3] it was 8.68 nM. Also, the koff in assay [3] was 0.00166 s⁻¹. The kon in assay [3] was 191000 M⁻¹ s⁻¹. For the same molecule, the binding result in assay [4], in assay [5], in assay [6] and in assay [7] was “binds” each time.

The term EC50 denotes the concentration needed to bring the measured effect to its halfway point. A low value points to an effect from little substance. As a reminder, the Kd is a measure of binding affinity in units of concentration. For orientation: koff means the rate constant with which the complex falls apart. A higher koff goes with fast dissociation. Broadly, the kon is the rate constant with which the complex forms. Higher therefore signals faster complex formation.

For the origin of these results see patent US20230340151A1 (Pfizer, published 2023).
